Measurements published in PMC4402543 (Nucleic Acids Research, 2015).

Biological target: full-length His-PCAF fusion protein (human, UniProt Q92831 1-832)
Experiment: pull-down

Sequence of full-length His-PCAF fusion protein (Q92831 whole entry, the tested form may be a part): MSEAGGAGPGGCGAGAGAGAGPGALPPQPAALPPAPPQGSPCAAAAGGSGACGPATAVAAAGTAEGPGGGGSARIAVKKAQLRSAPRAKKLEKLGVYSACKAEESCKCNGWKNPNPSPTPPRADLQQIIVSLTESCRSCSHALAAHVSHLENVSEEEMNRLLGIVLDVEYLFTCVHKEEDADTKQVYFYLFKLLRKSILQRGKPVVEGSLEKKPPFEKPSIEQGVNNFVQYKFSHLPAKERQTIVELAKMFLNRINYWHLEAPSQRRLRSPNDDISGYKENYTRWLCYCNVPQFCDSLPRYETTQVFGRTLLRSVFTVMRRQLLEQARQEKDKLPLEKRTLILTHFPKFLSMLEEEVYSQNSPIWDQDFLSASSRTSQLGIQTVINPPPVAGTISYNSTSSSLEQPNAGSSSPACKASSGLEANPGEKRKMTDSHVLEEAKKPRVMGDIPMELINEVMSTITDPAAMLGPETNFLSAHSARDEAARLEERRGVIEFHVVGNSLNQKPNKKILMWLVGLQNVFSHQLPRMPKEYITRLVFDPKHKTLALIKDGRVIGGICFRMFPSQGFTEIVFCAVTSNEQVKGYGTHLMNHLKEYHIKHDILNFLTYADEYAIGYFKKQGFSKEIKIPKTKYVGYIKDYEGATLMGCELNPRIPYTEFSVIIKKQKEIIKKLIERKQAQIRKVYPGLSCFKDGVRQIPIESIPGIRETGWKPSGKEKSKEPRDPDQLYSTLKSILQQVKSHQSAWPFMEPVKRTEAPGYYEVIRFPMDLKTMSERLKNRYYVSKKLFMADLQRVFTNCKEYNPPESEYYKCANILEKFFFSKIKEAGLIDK

Binder	binding result
GST-EZH2 N-terminal domain (1-522) (domain or fragment) MGQTGKKSEKGPVCWRKRVKSEYMRLRQLKRFRRADEVKSMFSSNRQKILERTEILNQEWKQRRIQPVHILTSVSSLRGTRECSVTSDLDFPTQVIPLKTLNAVASVPIMYSWSPLQQNFMVEDETVLHNIPYMGDEVLDQDGTFIEELIKNYDGKVHGDRECGFINDEIFVELVNALGQYNDDDDDDDGDDPEEREEKQKDLEDHRDDKESRPPRKFPSDKIFEAISSMFPDKGTAEELKEKYKELTEQQLPGALPPECTPNIDGPNAKSVQREQSLHSFHTLFCRRCFKYDCFLHPFHATPNTYKRKNTETALDNKPCGPQCYQHLEGAKEFAAALTAERIKTPPKRPGGRRRGRLPNNSSRPSTPTINVLESKDTDSDREAGTETGGENNDKEEEEKKDETSSSSEANSRCQTPIKMKPNIEPPENVEWSGAEASMFRVLIGTYYDNFCAIARLIGTKTCRQVYEFRVKESSIIAPAPAEDVDTPPRKKKRKHRLWAAHCRKIQLKKDGSSNHVYNYQP	binds
GST-EZH2 SET domain (610-746) (domain or fragment) not shown	binds
